Assay results: publication PMC8724787, “The epitope arrangement on flavivirus particles contributes to Mab C10’s extraordinary neutralization breadth across Zika and dengue viruses” (Cell, 2021)
Where a chain is given by its changes, count along the chain named. Names and notes keep the numbering of the source.

T1: DENV4_Burma/63632/1976 sE protein (aa 1-395) (Dengue virus 4 (strain Burma/63632/1976))
T1 construct: also called DENV4 sE
T1 chain: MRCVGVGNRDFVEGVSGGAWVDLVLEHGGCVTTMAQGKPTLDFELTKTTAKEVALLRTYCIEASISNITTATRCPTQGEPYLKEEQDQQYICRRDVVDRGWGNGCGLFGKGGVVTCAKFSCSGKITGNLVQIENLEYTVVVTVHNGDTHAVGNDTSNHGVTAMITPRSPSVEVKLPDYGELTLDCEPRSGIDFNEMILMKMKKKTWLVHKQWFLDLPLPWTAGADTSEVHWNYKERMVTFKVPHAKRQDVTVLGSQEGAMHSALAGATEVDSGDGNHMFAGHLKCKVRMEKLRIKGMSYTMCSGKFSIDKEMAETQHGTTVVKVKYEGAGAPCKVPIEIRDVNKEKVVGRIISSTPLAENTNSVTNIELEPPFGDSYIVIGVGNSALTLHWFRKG

B1: K^L66A C10 mAb mutant (IgG1) (antibody, V domains shown)
VH: EVQLVESGAEVKKPGASVKVSCKASGYTFTSYAMHWVRQAPGQRLEWMGWINAGNGNTKYSQKFQDRVTITRDTSASTAYMELSSLRSEDTAIYYCARDKVDDYGDYWFPTLWYFDYWGQGTLVTVSS
VL: QSALTQPASVSGSPGQSITISCTGTSSDVGGFNYVSWFQQHPGKAPKLMLYDVTSRPSGVSSRFSGSASGNTASLTISGLQAEDEADYYCSSHTSRGTWVFGGGTKLTVL
notes: IgG1
B2: C10 single-chain variable fragment (scFv) (scFv, V domains shown)
VH: B1 VH
VL: B1 VL with A68K
B3: C10 intact bivalent IgG1 (human monoclonal antibody EDE1 C10) (antibody, V domains shown)
VH: B1 VH
VL: B1 VL with A68K
B4: C10 bivalent F(ab')2 (other, human)
VH: B1 VH
VL: B1 VL with A68K

Legend:
[1] = biological target: T2, ZIKV-H/PF/2013 sE protein (aa 1-404) (Zika virus (strain H/PF/2013)); assay: BLI
T2 construct: also called ZIKV sE; ZIKV (sE)2

[2] = biological target: T1, DENV4_Burma/63632/1976 sE protein (aa …); assay: crystal structure; details: both partners purified
[3] = biological target: T2, ZIKV-H/PF/2013 sE protein (aa 1-404); assay: SEC-MALS; Superdex 200 10/300 GL; Tris 50 mM pH 8.0, NaCl 500 mM; about 150 ug protein; proteins alone and in complex; details: both partners purified

Row | Binder | stoichiometry N [3] | other results
1 | B1 | – | other [1]: 2 fold
2 | B2 | – | binding result [2]: binds
3 | B3 | 1 C10 molecule per sE dimer (2:2) | –
4 | B4 | 1 C10 molecule per sE dimer (2:2) | –
